Measured values published in the DeepSol protein solubility set.

Assay: soluble on expression in E. coli; label from the status in PepcDB or PDB records

Sequence	soluble on expression in E. coli
MSLYDELKNEFKRVLLDRQLTEELAEECATAFTDTTQAGAYSHGINRFPRFIQQLEQGDIVPNAIPTKVLSLGSIEQWDAHQAIGNLTAKKMMDRAIELASQHGVGVIALRNANHWMRGGSYGWQAAEKGYIGICWTNALAVMPPWGAKECRIGTNPLIIAVPTTPITMVDMSCSMYSYGMLEVHRLAGRQTFVDAGFDDEGNLTRDPSIVEKNRRLLPMGFWKGSGLSIVLDMIATLLSNGESTVAVTEDKNDEYCVSQVFIAIEVDRLIDGKSKDEKLNRIMDYVKTAERSDPTQAVRLPGHEFTTILSDNQTNGIPVDERVWAKLKTLEGHHHHHH	not soluble
MSLYGGIPTNLVSGMSSAGAICTTQIRDAREREKREIGLLNDRLADYIEKVRFLKAQNHVLSHDIEILRRGFSGGGHISSFFESEISNCTVISERILSSRTKFQADITGLEGEIEIYRKKWLEALKVVRSHREDHHVNLDKLAEVEAQIALFNRKIRIVEEDVLRIRRETGGIQNDIGRIHSQIHAEIALKNERHHSVQMLLQRVQVIQTENSSRIEQELIYIHRDTTLENRDYFRQELQAAMRDIRANYEAMSIRSREDIEIAYRKRIDEIRVIPAHVHIEDYREELLSIRTTLSTTHSRLAEIESRNAWLLTTITDLKHQQAEEARIFEATLDAKQATYEQFKERCTELSIQMEKLCDHETSLQAELERYRVLLNGANVTTYVSNSTGAAGYRSSTHVATTTTTTTNGYSSGYTAGGYTSGGYTTGGYTRGITAGGAVGGISTGGYIGRSSSSHGISVGGNIGGVSVGGHINGYHASGDISAAGRHHESSYSYSSSNN	not soluble
MSLYKIGELSKIVNLSIETIRYYEKIRLIPKPERFNNRYKKYSEMYIYRLKIIIKAKNYGFTLHEISNFLSEVSTSSIEDIDLSSTIMNKVQQIEKECERLNYKKNQLLKFEEEINDLQCPVLNRIINEKNEGHHHHHH	soluble
MSMSDIGGKDRLNDEKRVTVRLSRSMVEEMEDLVNRDEYESVSDLVRKAVSALLESRGVNSDFLPVQIMVPKNLIEKLGKDSTKPVNLSLDEFSSLILDRINGLTVRETIKKIVHEENIK	not soluble
MSMVVDSVPDSSTFVGKTIRPVAAVSIHGIVFDGERLLAVDSKNGYLLEIDPYTNNTKLLNGQYWQEFIGATGLAIADRQLWFSSGQYVYTCNLEGPDLKPEVFAWFDDPVNGVAIWESTVYITCHKRGHIWVYGRDTRKLVATFYSPGIGVENITVRGEELWVCDSAEQSVYCLDRATGEINFSLITPFESPTGLAFYDDQAVGKATLYVAYVQQEPYVRDNPNADPNHELMYRETTFIHPLYFYNDPHQCCAFSNGYLVEMRYVEELAPLDPVDLKQVEWRMALPAVTPRQRIRKIESVGLPFSRIDDVNGQKVAVFEFDQLDLDSRAVFGWRVEMEVWGIKYRLKPSDCEHLPALPEGFADRYLVDNDNLSMETDIIIRAAAEAIGRETNLLRQMFNIRNYVYDRLSYGIKPHIDTPDLALRRGVGSCGEYVGVLLALARLNGIACRTAGRYKCPPHPLQRNLPMEPDFNHVWFEFYLPGIGWLPMESNPDDTNDGGPYPTRFFMGLAWYHAETAKDVPFEQLLSQGIPVNKQVVSIGELAINHVQFTILEELDPAAHLAHLEHHHHHH	soluble
MSNDVYIIGAGETKFGELWDKSLRDLAVEAGLEAIKDANIYSKDLQMLYASNSLAGTINEQSNIAALAADFSGIAENHVPAVRVEASTASGGAAVREAYLAIKSGEYDVVMVGGVEKMTDIYGTEIIDVQSSILDREWESFNGATPAAMAAIAARRYMHDFNVEREAISMVAVNDHANASLNPDAQYRNKITVDQVLNSDPVAEPLNVFDCSPITDGASAIILASEGFVKKNRIDGVRIL	not soluble
MSNIYDSANELSRGLRGLPEYKAVKAAKDAIAADAEASKIFTDYLAFQEEIQKLAQTGQMPDASFQAKMEGFGKQIQGNSLLSEFFTKQQQLAIYLSDIEKIVFEPVSELLK	soluble
MSNQYGDKNLKIFSLNSNPELAKEIADIVGVQLGKCSVTRFSDGEVQINIEESIRGCDCYIIQSTSDPVNEHIMELLIMVDALKRASAKTINIVIPYYGYARQDRKARSREPITAKLFANLLETAGATRVIALDLHAPQIQGFFDIPIDHLMGVPILGEYFEGKNLEDIVIVSPDHGGVTRARKLADRLKAPIAIIDKRRPRPNVAEVMNIVGNIEGKTAILIDDIIDTAGTITLAANALVENGAKEVYACCTHPVLSGPAVERINNSTIKELVVTNSIKLPEEKKIERFKQLSVGPLLAEAIIRVHEQQSVSYLFS	soluble
MSNRDQLFKAPPFENHSPLTWYQAASQLPNFIRDDAQAAAIEHLDRLWTELMMFKRKRNRFLGRSLRSPQVPKGLYFYGGVGRGKSFLMDAFFGCLPYRRKRRVHFHAFMAEIHQRLKTLKSESNPLKSVAAEIAKETRVLCFDEFHVSDIADAMILGRLLENLLNEGVVLVATSNYAPSELYPQGQNRSSFLPTIALIESSLTVLNVDGGEDYRLRTLRPAEIFFTPANEENEAKLAKLFKEMTGITDLNPGISTIHGREIPHKAESGRAIWFDFRALCFGPRSQSDYLYLAEHYEMVFISGLEQLSPQEKAEARRLTWLIDVLYDFRVKLCATGAVDVNHIYTEGDFAEEFTRTASRMVEMQSEVYLEQPHLTLSPKASGG	not soluble
MSNSKPVNYLTLKCLLKNMDSGMRLQLFVMFPSIQYLEKLFPLHVKYLTIKSDHITVNRTTFQLKICNKYNNFHGGYKFDFDQYGRLDRGEIEQDPDESIIDVRDGFLSKKGIPECEMETARLVHNLTLQKSQRYSTRIWESHGTILKKLSYYVPENNFIRLKIGKRVEVLEYQRKIHEAMKYLLGRLFGGRSLEANQFSIGCDTVLRVPSTLKFRIENLYTPSFKIANTLDVVNQIVDNSSLPLSSLKYSFENHIYHHPHSLVRTVKMLKLEVEMVPDYISGIVSNLQMVDEKRAHIVFLGDCTSSNFLKILAHWILEFHRDIGTYHTYQLSEAVVDEVMIFVRTNYGVMIEAGLPQTTDQITLNINDTSSLVISKFQQKEKWIFGLKMEH	not soluble
MSNYTIIDLNQQPHLIPSAAQWFSQKWQIPAEAYQASMQEMLTSENHVPHWWVCLNKQQDIVAGVGVIDNDFHNRADLTPNLCALYVEPTFRHQGLAGILLTTVGDFLANSGFKKLYLLTDHTTFYERYDWEFLTMVTTEEQSCARIYQKQLRQ	not soluble
MSPAPVQVMGVLNVTDDSFSDGGCYLDLDDAVKHGLAMAAAGAGIVDVGGESSRPGATRVDPAVETSRVIPVVKELAAQGITVSIDTMRADVARAALQNGAQMVNDVSGGRADPAMGPLLAEADVPWVLMHWRAVSADTPHVPVRYGNVVAEVRADLLASVADAVAAGVDPARLVLDPGLGFAKTAQHNWAILHALPELVATGIPVLVGASRKRFLGALLAGPDGVMRPTDGRDTATAVISALAALHGAWGVRVHDVRASVDAIKVVEAWMGAERIERDG	soluble
MSPFDYLHFALLLVAPLAVLIGCGGKKKPPPPKSASKMGPPPPAPAPPTAPEATPAAPAPDAAAAAPAEGEKKDGDKKSEKKDGDKKEEEKKDEEKKDGDKKEDDKKDEKKDEDKKDEKKDADEKKDEEKKDDKKDEKKDEKKDEKKEKSKKSKKSSKSKKSKKSKREKKDEDKKEDDKKEDDKKDDKKEDDKKDDEKKDDDKKDDEKKE	not soluble
MSPNPVEKAAILRIIDSIDARDDDYCAHEFNVYRWLVAYGNEEEEAAKALKRHLNIRKTIDLNSYSSKTELEEDELNKYVPIDVIGQNHQDDNKVLMFERTGKIDISGLVDNVLMHKFMQIKLKMMEGVHQKVVAAERKTGRQSGGLFIMDLDGISFSPKLISVLTGPYRIMWGTLFDHYPQLLQKIIIVNAPSFVNVLHQACSPFLPEDYKEKIVITSEPAIGAIQKHADKCFLPSDLGGDLEKTTSLPMAPFPKMNKKYEKEKEKVSLLAISVPAGKYTVQKFSWKKGDEVEFFLHNESSFHYFMFHSEEDTKDMDLWREMTVGCERPALSQIDSWKYTVPIDGFYFIRYGNHNSWYFSTTVNVNHFISNENGERIELVPIETFNI	not soluble
MSPVSARFEPAALRPDLARIAGWIEPGSRVLDLGCGDGALLAYLRDHRQVRGAGVEIDDNYVIACVQRGVEVIQQNLEDGLALFDDQQFDTVVLSQTLQSMHRTEHILREMARVARHGVVSFPNFGYWPHGWSILRGRMPVTGQMPYQWYNTPNIHLCTLRDFEDLAGTLGLRILQRATFNEGREVRVFPSWRSTLALYRFAASLEHHHHHH	not soluble
MSQATQQLDETRLALADALQAGNWDAIGELDQVCQVKIDQAMHDDERDEQALRVSLEQLLSLYNDMLSACRQQREAIGAELTGLQRASKGAKVYQMFG	not soluble
MSQDVNELSKQPTPDKAEDNAFFPSPYSLSQYTAPKTDFDGVEHKGAYKDGKWKVLMIAAEERYVLLENGKMFSTGNHPVEMLLPLHHLMEAGFDVDVATLSGYPVKLELWAMPTEDEAVISTYNKLKEKLKQPKKLADVIKNELGPDSDYLSVFIPGGHAAVVGISESEDVQQTLDWALDNDRFIVTLCHGPAALLSAGLNREKSPLEGYSVCVFPDSLDEGANIEIGYLPGRLKWLVADLLTKQGLKVVNDDMTGRTLKDRKLLTGDSPLASNELGKLAVNEMLNAIQNK	not soluble
MSQEDLELFQQMMGDVKTITHDTVELKKAHQVTEAQLAKREAAVSLADHDPEALSIDHAPMLKPDDMLEFKRDGVQDGVYRKLRLGKYPIQARLDLHRKTLKEARSEVIQFIRQCMAMDIRTLLIVHGRGERSTPPALMKSFVSHWLTQISEVQCAHSAQRLHGGTGAVYVLLRKSAEKKAENRERHQKRLG	not soluble
MSQEFVGRWKLIHSENFEEYMKEVGVGLITRKAAANLKPTLEIKVEGDLWYSNQYSTFKNTTLSFKLGQEFDETTPDGRTVKSVVNFENGKFIHIQKKIKDSDKESIITRWLEGDKLITTLESGSVVSRREYVRE	not soluble
MSQFEKQKEQGNSLFKQGLYREAVHCYDQLITAQPQNPVGYSNKAMALIKLGEYTQAIQMCQQGLRYTSTAEHVAIRSKLQYRLELAQGAVGSVQIPVVEVDELPEGYDRS	not soluble
MSQFKNIIVTGGAGFIGSNFVHYVYNNHPDVHVTVLDKLTYAGNKANLEAILGDRVELVVGDIADAELVDKLAAKADAIVHYAAESHNDNSLNDPSPFIHTNFIGTYTLLEAARKYDIRFHHVSTDEVYGDLPLREDLPGHGEGPGEKFTAETNYNPSSPYSSTKAASDLIVKAWVRSFGVKATISNCSNNYGPYQHIEKFIPRQITNILAGIKPKLYGEGKNVRDWIHTNDHSTGVWAILTKGRMGETYLIGADGEKNNKEVLELILEKMGQPKDAYDHVTDRAGHDLRYAIDASKLRDELGWTPQFTDFSEGLEETIQWYTDNQDWWKAEKEAVEANYAKTQEVIK	soluble
MSQFSFTKMHGLGNSYIYVNMFEEQIPEEDLALVAEKVSNINTGIGADGMILICPSDVAPVKMRMFNNDGSEGKSCGNGLRCVAKYAYEHKLVEDTVFTIETLAGIVTAEVTVEEGKVTLAKIDMGAPRLTRAEIPMLGEGETPFIRENFLYNNHRYAFTAVSMGNPHAVIFVDDVEQAPLTTLGPVLETHEMFPERVNVEFIEILNEEEMNFRVWERGSGVTQACGTGACAAVVASILNGKMERGKEITVHLAGGDLMIAWTEEGNVLMKGPAEVICRGVYEYKIEA	not soluble
MSQLSPKNKNDLRQCVLYEFIDGKPVFEAYKSFCDVIGDSCMDYVDFEFWFMRFANGNLNLDFNFDKSSSLSIFNIPIEILVKIMNELDWVSRLSMRQVSRAFRSIVDEESKMPKSLSFGFYDDTVFLQYDDSCVKYKDLEEEGHDDKIDIALFDFGVTLINPRLKLDYFEVLIDAKHGLDIDSDKCFKSLEALLKARNLPLPVKNVNIETNSGYEMNHAKNIIPYLKSGVLEKIVTNCDSSSFENIEIMKEIVELDQWKQAKHLEIDSLVKIPIENFLHFEHFELFFEHLCFQDVKERLLESSNFRHCTLQVMNSFDLEELAANFGIQYMGDDEGIRQTTFYEISTNSLEMTMFLDFVTFDRKF	not soluble
